# According to the DeepSol protein solubility set:
# Experiment: soluble on expression in E. coli; label from the status in PepcDB or PDB records
row,Sequence,soluble on expression in E. coli
1,MGSDKIHHHHHHKVSEAEAAKLGTSLTPMGGEMAASADGSIPAWNGGITAAPAGYKKGDHHPDPYSADKVEYTVTKANLEQYKSLLTPGQIKLFELYPDTFKMNVYKTQRSASAPQWVYDATKANASRAELVQGGNGVVGAAVGIPFPIPQNGLEAIWNHILRFRGVDIETQRNQAAPAKGGGYTLVELSEQLRFEYSQPDMTPEKLKENNTLALFKQVVTQPARLAGTALLVKETLDQEALPRQAWTYNTGQRRVRKAPNVAFDTPGTVSDGLRTTDDYDMFNGSPSRYNWELVGKKEILIPYNDYKLHSDKVKYDDILTPGHINPDLVRWEKHRVWEVKATLKDGMRHIYKTRVFFLDEDSWQVSATDMYDNRDELYRVAFAHGLNYYEVPAHWSTLEVFHDLQSRRYLAIGLDNEGSMYDFDAKLSASDFTPDALRREGVR,not soluble
2,MGSDKIHHHHHHKYTLRFGHVLAPGEPYHQAFLKWAKAVEEKTNGDVRIEVFPSSQLGVEEDIIEQIRMGAPVGWNTDSARLGMYVKDIGVMNLAYFIDFMGAKTPEEAIEVLKKIKQSPTMQKWLKELEQRFGIKVLSFYWVQGYRHFVTNKPIRKPEDLNGLRIRTPGAPAWQESIRSLGAIPVAVNFGEIYTAVQTRAVDGAELTYANVYNGGLYEVLKYMSETGHFLLINFEIVSADWFNSLPKEYQKIIEEEMDKAGIEVSLKIMKELEEEYKQKCIEKGMAVIPASEIDKEAFMEKAKQAYKNLGLENALNQLIKEVKGE,not soluble
3,MGSDKIHHHHHHLDLSPEDYYGSGNFWTKEAQVEGYMNGLHNNLRSSYTMFYVLGEARGGTSRYGTSSLGTSMSYSDPIKNNMLTKDNTGISNWYDLYGRIMQVNHFISEVSNGCSFLSESKKGFYLGQAYGLRALYYFMLYKTYGGVPLITDVKVLEGGKISADALYTERSTPETILKFIKSDLEASELNFGNNVTIDRAMWTKYATLMLKAEVYMWSAKVTTGDHQATGNSDLAIAQTALQPLINQFSLLDNFSEVFSKKANDEIIFAIRFKDGEATNWAGPFIYYGNIFEGQRYGRDGKLMQDTLDLKGTVGQFLHEYKKALWDSYDDEDMRRDATFMDHYGSAQKEGFGIAMKKGIGSVNSNNQRIFDTDIIVYRYADVLLMMAEIENALSGKCANYVNEVRKRAYGKNWHPQFAYTDGSYADNELTILHERDKEFVWEGKRWFDVVRMHDANGKSLAFSVAANYPNNETPDERVPLIKESEAHKLLWPIDVNTLNNDPKLEQTPGYDK,not soluble
4,MGSDKIHHHHHHLGGGGIRPSHLLADEGGGPPYRPPAGRPVPSVPALMKLNAIEAGSAAADRVPLLILHGLLGSARNWGAVVKALGESRRVLALDLPNHGSSPWTEIMDYPFMARELASVIEHLGGRAAIMGHSMGGKAAMTLALSRPELVERLVVVDIAPVSYSHTFAPYIKAMRGVPLGEVSSRGEVEAALAGAIPDKGVRAFLMQNLEGGAGGYRWRPNLAVLGAHMDDILAFPHFPDDTAFQGPTLFVAGETSDYIRPAHEDVIAQFFPKAESVEIPGAGHWVHADNPSAFMSAIGSFL,not soluble
5,MGSDKIHHHHHHLISTANITMQFGPEPLFENISAQFGHGNRYGLIGANGCGKSTFMKILSGALAPTSGNVSITPGLKVGNLSQDQFAFEQHSVIDTVIMGDMKLWKVKQEREAIYAKPDMTDEDGMRVGDLESEFAEMDGYSAESRAGEILIEAGIDESMHFGLMQQVPPGKKLRVLLAQALFANPDILLLDEPTNNLDIHTISWLETELNKRKCTMIIISHDRHFLNAVCTHMADIDYGELRIYPGNYEFFLAQSSLIREQLLAGNAKKSAEIDELQDFVNRFGANASKAKQASSRAKKMDKIKLDDVKSSSRITPSIRFEAGKKMHRQALILEGLGHGFDEGMLFTGGDLILEAGAKLAIIGENGVGKTTLLRCLVNELSHKEGVVKWSENAAVGYCPQDSSADFDNDLTLMDWMSQWRLPKHNDLMVRGMLGRLLFTEDDANKKARNCSGGEKNRLLFGKLMMQDVNVLIMDEPTNHMDMEAIEALNNALKDFEGTLIFVSHDREFVSSLATRVIDIKDKKLINFQGSFDEYLASQSEAQKIA,not soluble
6,MGSDKIHHHHHHLNTTLSEYSIENLYGLYNHSLKFNDGESIAILHGPNGVGKTALLRSITYLFNSDFSSLSKIPFSRLFAKLSDNTEIIVTRKGVTKEQLLKHSQELHKISIEIKSKDKTTTSFSLNEAQLRPELLPPWIVLSDDGSYIDERNGMLFPEEFLHQSLFGKNKQKEIRNRETATQILEKIKVHFVETNRLYRSNSDTTWKRKKEKEMVASVDECAKHLVVLISTALKDYGKKSQELDQSFPHRFISEPIAQMSLDKLKTRLNELASQLKKLRKIGLLDAEGIQPFDPESLDKVEKSKLEIMNLYVRDSEQKLAVFDNLSKRIQVLLDGLNSKFKNKNIQLNKERGLIARGPNDFDLSLSDLSSGEQHEIVLLYELLFKVAPNTLVLIDEPELSLHMTWQKSFLPELLSISREIGFSSILATHSPFIVGDRYDLLISLDTKNNNDSME,not soluble
7,MGSDKIHHHHHHLRDATSQIGQTVVGEAVRLVSFRPLGNLANHTLLMAAIVMMQSKHPDQFEKSNEILDTLMEREMHHPVVLTWAGIWHVMRVQKGLSGDRRKSTLMAENLANAALAQDPAFSLAHTLKGMIASYLTFDFDNAQYSYDKALQDNPNEALALLLKGATRAMQNRPDEGVVLTEAARKLTPLGPQRYYFDSLAAAVSLAARDYNRAIELADRSLEENDSYPSTLRTKAIALQMSGRSDEARHVVESLMKVTPDFSLSRYMQEHAAGFTPSGPDWASALREAGVPE,not soluble
8,MGSDKIHHHHHHLSQSTPDLLTKQLRYTDYLRANGIPFMKCVKPTDEALFTTIMDSIGQEWTCCLFHWIDGHHVTANTEQTAARMGQLARQLHDVSLHEQEIQFPFIDHTVTYQRWLGDLQRLSASRMPEPVQNSFQEYLTLAQQHLDTARLPKSSSLQPVISTDLNSLNVLWDSDQHIVGIVDHEHIGATDRVQDLAWLIKWYARTEGIDSHDVSGRLAKSLLTHYNSPTLLVPKEDPRLASLLWLSGCMNLHFVERTKQLAFDAENNPVGYDQFQLHLQTYRLRGERLVGLLT,not soluble
9,MGSDKIHHHHHHLVPPDYQDPPSDFTAEVEAGLQLNTGNNESKNFNSRAYLTYDTPKTRQEGTFKVYYAADGTETTSEKYDLFLQSSYKLNRGYVFGRGEFTWDDFGSFTEIRTLSTGYGFDLIKSYKTKLSLEAGPGYRYDMPRATLSDPEPRANREVILRTAARYSVKLQEYTSLNADVTAETGLDNNTLTLDMSYKNTFLQDWAFKIGMNVRYTQDVPQDSQRTDTTTTFNLLYTFQ,not soluble
10,MGSDKIHHHHHHLYINKRPIFLVHGLWNNPKLFEKLIKKINEDDYELYRPHLPHKYGKTSLKRLALDLDSKIEELVGPEIEIDIVGFSMGGLISRFWLQNHDGFLRTKRFFSIGTPHFGTYTAQMIPSFLMPGIAEMKRGSRLLSLLNNDLTSLEKVECTSFFTKWDLMSFPGWQAKLSIGESYHLPVLTHKELITNSSSLDILVKKIFKNS,not soluble
11,MGSDKIHHHHHHMAAELKTITVLGAGGKMGMRISANFQKSDYQVFYCENSPRAQEQVVAAGRELSIAEQVIPESDVVILAVPDIALKAVSGIVVPQMKSNAVLLTLDPAAAYANLIAKRDDIDYAVAHPCHPSVFLDRFTPEEHADAFGGVAAPQHVAASYETGSDEQKATLARVVKVMYGPVIDVHWVTVKQLAYLEPTLVETVACMVGTLMKEALDETINTIGVPEAAAKAMLYGHIQIALAVAFRSTNPFSDACMIAIEYGKENIIKPDWKKIFDEKELDLVIAKMLKIDAIER,not soluble
12,MGSDKIHHHHHHMAEIDFIGRYHNATKRDYVQRVVEYDKAECAATAKQWGFDYWDGDRRHGFGGMRYDGRWLPLAEDLVRHYGLKAGDKVLDIGCGKAFLLYEMTRACPGLTVAGLDISEYGINNAKEEVRPFLTLGNATRLPWPDRHFDLVISINTFHNLQIHELDQAVREMQRVSTGRGYICVESYRDESEKANLLYWQLTCESFHRPEGWRWVYDQAGYTGDHGFIYFQ,not soluble
13,MGSDKIHHHHHHMAEINYQLIDFDNRGDLGLKNEPFELFGRMKIDRLNNNWSYEVEIFTHKRTMAFPDERYHLQEINQNGFALGAYDDSNCVGLAIYQKHWNKYLYLKDLKVNRDHRKLGIGNQLIKEGLRRAVQLGYKGVYAVCQDNNLAACQFYLKIGFQIGGFNDFDYNYTTQSGKSDIYFYLDKNSAR,not soluble
14,MGSDKIHHHHHHMAEQMRRVARLFGDWPETIIWTCLEGTMGDIYVDDSQSPQSALALYGRQSFFGFLAGQPHRDLLKICEGKNIILVPQNQAWSDLIEEVYGDGVRFFTRYATKKDTEFDLGHLQKLVDDLPESFDMKLIDRNLYETCLVEEWSRDLVGNYIDVEQFLDLGLGCVILHKGQVVSGASSYASYSAGIEIEVDTREDYRGLGLAKACAAQLILACLDRGLYPSWDAHTLTSLKLAEKLGYELDKAYQAYEWR,not soluble
15,MGSDKIHHHHHHMAESIRPLTKNDRQQFVTVMTKVFAKDPLFLYIFGDLYNDHRAQRRARTFMGFIFDKSMERQAEAVWGLFDKDTLLGTYVVESCPAETNHSFAELYRLMILIFRLSLQLPPKMTWQLNRYMRVTRAHAPSIPHHYLTIIGVRKEAQGAGRGRNLLEHIFGTIGSGELSLDTEKKENVTLYKKFGFVLTDVVKCGPINVYCMRKTIRPRQKN,not soluble
16,MGSDKIHHHHHHMAEVFHERLKSPIPTRELARRSRELQAVMKKENIDCILAQNITQYMGGCNRWLTDTTAENHYPQSSFLTKDGDIGYIACSGPPLDLYPPSHLLRIGKPWAAAPYFSVFNFTWDWEGRLFVKWVQENNVQKVGIAGMEMIMWNYYNYIAEKLPGVEIVDASSLFDEIRAVKSEDEIKFLEKSAALQDKVMGYLPALIQPGVREYEVRAKIMQLVTDHGGEEMIVIMGSAPRGEKFSLLPSFFQNRELQTGDELYVKLQCSGPGGLFTTVGRMFSIGCEPSGALEQGWREAAAAQEKLAGLLQVGADPQVIFGQYNAYLESKGYNQETGLFVYGQGYDHIERPSIQPGETMKLAKDMCLAANTSLISAERTVYCADSFILKPSGPQKLHRTPLTIFRT,not soluble
17,MGSDKIHHHHHHMAFKQRREYLFLYTVKDANPNGDPLNENHPRYDGDTAQAMASDVRVKRTTRDEWVRSGEIVFVDGEPKSLKTRFEELKKITGKSDAREIMKQCLDVRLFGVTFALGKEAFAWTGPVQFKWGRSLHSASFEFVQGTAAFATERGGADNRQRSFRNEYLVPFALMGVYAIANQYASQYTDAADEDLQRMLDGLWQGTDNLITRSKNEHKSRLLIEITYKEDFNGKIGALDDKVTLLDREGKVMDREKQKALRSLQEVSLDIGALLKSMELKQEQIAGIRVITDGEINIIQEEQLKGISSIEVR,not soluble
18,MGSDKIHHHHHHMAFQNIQRFQNQDLIRVGNDDNYLLLAPHYGGRLVRWVRHGEEILYWPEAADWSRPAKIRGGNPLLFPFIGRHFADGEAGRWRDANGTTHTLPQHGFARDLPFTVVAADDDKIVMALESSDSTRAGYPYAFRFEASYVMLEDGVEVALRSENTGSDRLPYYAGHHFYFSLPAAHRPDTRLLLPEAVRLRQEPDGRLTHAIQGEPAYALDDDRLQDTFHALRGGGSVTLAMPGRTLAIDLDVPGCVAWHAVTTWTESKDADFYCVEPWLGLPDAIHHGHGLRWLEPGEQETAVCRVRVVA,not soluble
19,MGSDKIHHHHHHMAGAFDAGFWLPVLERLPDFRGDCIDMGFYGQPKRPKVPRPLILAHSMGLAWALAHIPRPWAGVFAVNAFPRFTRSPTFVEGVPPRLIERMLARFDETPAQVTADFLTRCGLDNPDTSAIDAAPLKDELAWLARCDERTALRMLPCPVLALAGTSDPIVPQGMSTASFAPDTLTLVDGAGHLLPLTHPDWVAAQIRLFAARLEA,not soluble
